Experiment: soluble on expression in E. coli; label from the status in PepcDB or PDB records

Soluble on expression in E. coli, not soluble:
MGSDKIHHHHHHMSRNSPLEISRTLVAALSTQMFRYYEDRIPQDASVLVVSNHRSFMDALILMAALSSPIRFACHHYMGQVPVMREIVTGQLGCFPLEETQNRQQSFFSQSQLLLQSKQMVGVFPEGTAPMVKSTQPNQVGEFQRGFAHLALRADVQDLAILPIAIASLEEVNTNGFPLRLLSVFDPSEPLFNQAGWHPLVIYRRVAVLIGRPYWITPQHQKKYHGKQARTVVAELTEHCHGEISHLLRQGCY, MGSDKIHHHHHHMSRTADSLPSTRQRRKEARPQELLDAALDLFVEKGFAATRSEEVAARAGVSKGTLYLYYPSKEELLKAVIRENISQEIAEGEDIVRGFDGPTAELLAHLMAEWWRRIGETRASGICKLIISEVRNFPDIAQFYLDEVVLPAERMIGGVVQRGIDRGEFRPVAVDDVVHALMAPMLFLMLHKHSMGACPNLDRRLDAPRVVAMQVDLVLNGLVPRTAPRGGPRKAKA, MGSDKIHHHHHHMSSEQIIASLKELVATPENPGKVLTDPADLDNYGKDWTKIYPPKPLAIVLPKTTEQVQALVKFANENQVALVPSGGRTGLSAGAVAANGEVVVAFDNMNQILDFNASDRTVRCQAGVVTEQLQTFAEENGLYYPVDFASAGSSQLGGNLSTNAGGIKVIRWGMSRDWVAGLKVVTGKGDVLDLNKDLAKNNTGYDLRHLFIGAEGTLGFITEATMKLTRKPDDLTVLVLGLNDLTNTMDVLQAFQKKLDLTAYEFFSHQAMGHVLAHGQVQAPFETEAPYYALLEFEAVSDQVMDDAMALFEQCVEEGWVLDGVISQSETQAQNLWQLRERISESIAPRIPYKNDISVVVSKVPGFLQEIDNVVTEHYPDFEIIWFGHIGDGNLHLNILKPEDMAKEDFFEKCQQVNKWVFEIVERYQGSVSAEHGVGMTKKPYLQYTRSEAEIAYLRGIKQVFDPNNIMNPGKIFD, MGSDKIHHHHHHMSSFAEFSRLALTLEPWRQHIVFVGGWAFRLYGYEPRAYTADHKPIFTQDADVAYDKRELIEGDIKTALEGAGFTEQPNLAGGFRPPAMRYNLDGDENGFYAEFLTPLTGSGKKRDGKGGLKEDATERYAGIVAQKLRFLEVLLFKPWLVTIPKEESGLDEAVADLRVPNPVSFMIQKLLIRDRREGKKRAQDVLYIHGTLQIFYGVVENDLVPIWKELEATLHANQRKSVREGVQELFSEMNDVIREAAEIPDDKLDPEAMLQLCREGFEELFGDI, MGSDKIHHHHHHMSSLGLIRNLPRSRFVPLVVLHDTDGPVADLFRREGIDFVAAPVLNRLARAAPRNGAAVVNVMRTLPALVRFLRASNASIVHTNDGRTHLIWGLAARVAGAKHLWHHRGDATSFGLRRVAPWLPNRLVAVSKFASPRPGIFSAASKCSVVHSPFDVTKMAGFEREEARNNVLAAIRCAPETKLLGYVGTLVDRKRPILFVEAVAALKRLSPETKVVGLFFGNALNGLDEAAKSRAEALGVADCIHFMGFRYPGEPWIAGLDALLVTAVNEPLGRTLVEAMLLGTPVVAADSGGNPEVVEDGRTGMLVRADDPDEFARACLKLFSDAALRDRIVETARNEVRARFSFERHVHAITSVYEELTGGMAAMQRSARAG, MGSDKIHHHHHHMSSSDRYMQRGVSSQKEDVHKAIKSIDKGIYPRAFCKIIPDILGGDPEYCNIMHADGAGTKSSLAYVYWKETGDISVWKGIAQDAVIMNIDDLICVGAVDNILLSSTIGRNKNLIPGEVLAAIINGTEEVLQMLRDNGIGIYSTGGETADVGDLVRTIIVDSTVTCRMKRQDVISNENIKAGNVIVGFASYGQTSYETEYNGGMGSNGLTSARHDVFNNVLASKYPESFDPKVPENLVYSGEMNLTDPYLNVPLDAGKLVLSPTRTYAPLMKEIIHQYKGKLDGVVHCSGGGQTKVLHFTDATTHIIKDNLFDVPPLFQLIQGQSNTPWEEMYKVFNMGHRLEIYTDAAHAEGMIAIAKKFNIEAKIIGRVEAPVAGKRLTITGPQGTEYTYA, MGSDKIHHHHHHMSTAVTFFGQHVLNRVSFLRCSKEFIKKSLNHDSTVFIPFIEGEALISPENGDLVQLSNSVKSYKNILSAIVPLYTTLLNTTRSRSDESGINVTFLGLLEGTDSAFNFEWSNISYKGTPYFGLDIRVTESTLFKKVDFEPIFSYPKVTRDHIFKQTNEDASLYSQGKMYLDWLAKYKFCPGCGSPLFPVEAGTKLQCSNENRNVYCNVRDARINNVCFPRTDPTVIIALTNSDYSKCCLARSKKRYGDFVLYSTIAGFMEPSETIEEACIREIWEETGISCKNIDIVRSQPWPYPCSLMIGCLGIVQFNSKNEVINLNHDDELLDAQWFDTTEIIQALDKYAGGYRVPFKNDINLPGSTTIAFQLINHVCENYKNLRKTSSSHL, MGSDKIHHHHHHMSTELNTMALSVPQGAGLDGYIQSVNRIPMLTAEKEKALATRLYENSDLDAAKELIMSHLRFVVHVARSYSGYGLPQADLIQEGNIGLMKAVKRFDPSVGVRLVSFAVHWIKAEIHEYVLRNWRVVKVATTKAQRKLFFNLRKMKKRLGWFSQKEVETVANELGVSTKEVLEMETRMSAHDQAFELSSDDDDSKEGSAYSPAMYLEDKRSDLAAEIEAKDYENHTQQKLLGAMSHLDERSQDIVQSRWLSEDKTTLHDLAEKYEVSAERVRQLEQNAMKKLRLAMS, MGSDKIHHHHHHMSTIEERIKEIEDEIKRTQYNKATEHHIGLLKAKIARLQMEARAHKGGGHYGFSIPKSGDATVALVGFPNVGKSSLLNVLTNSESEVGSYAFTTLKAIPGVMEYKGAEIQILDLPGIIENASYGAGRGREILSTVRSADLIVIVTDVETGGLDKIVKELYNSGIVVNRRRKNIEIKKTTSGGIRVHKPKNVDIDSEYIRQLMKEFKLVNADVYIREQVNEDDIIEAVQKNYVYIPSIVAVNKIDMNGAFDTSPLTRFGEVFKVSAKNRIGIDELREGIYRSLKLLRVYLRNKAGVVDFDKPLILTDGSTVRDVCRKINRSLIDSFRYAIISGKNRPIGEQRVGIDYPLLDEDIVTIISRN, MGSDKIHHHHHHMSVMFDPDTAIYPFPPKPTPLSIDEKAYYREKIKRLLKERNAVMVAHYYTDPEIQQLAEETGGCISDSLEMARFGAKHPASTLLVAGVRFMGETAKILSPEKTILMPTLQAECSLDLGCPVEEFNAFCDAHPDRTVVVYANTSAAVKARADWVVTSSIAVELIDHLDSLGEKIIWAPDKHLGRYVQKQTGGDILCWQGACIVHDEFKTQALTRLQEEYPDAAILVHPESPQAIVDMADAVGSTSQLIAAAKTLPHQRLIVATDRGIFYKMQQAVPDKELLEAPTAGEGATCRSCAHCPWMAMNGLQAIAEALEQEGSNHEVHVDERLRERALVPLNRMLDFAATLRG, MGSDKIHHHHHHMSWNSFGNFMSARSSALAEFGNMVANLVSAKNEKDISKRNEYYKQAGYSALLAFGNLASNIAPGSTSSHIVNGTNASVIASRLSGNISSAIQEHKDGKVNINRFQNILADLYSLGGLGSTLIEKNGNMQSWGIPLAIAGDIIAATAIATGDTGTISTEEFYNFDNWKGFGYELFEDWSRWVYDWLPDGWNLWKELDRNRCWILTERDGRRQFKWLGKPDPTRGWFDNGHECLKPWGNIFDSYRRGKYHVYDPLALDLDGDGIETVATKGFSGALFDHRNQGIRTATGWVSADDGLLVRDLNGNGIIDNGAELFGDNTKLADGSFAKHGYAALAELDSNGDNIINAADAAF, MGSDKIHHHHHHMSWSSAIFTGAVVHQRHRPKKHSLRYQVFCLLVDLDELPAIDKSLWLLGYNRRAILRIDDRDHGLGIPGGLKAWVANHVERAGLNTEGMKVSMLCYPRMFGYVFNPLTLYYCYGPSGTLLALLYEVENTFHERHTYVIPASVEEDGAIRHACAKQMYVSPFMPMECLYRFKIVPPGETVTVAINEADEQGPLLYASFCGKRRTLDDRALAKVLVRYPLMTLKVMGAIHWEALKLWVKGVPLHRHRKAQNPIASSIIPPEAANARSPS, MGSDKIHHHHHHMSYSAKVLWGEGLFLRPQHFQRQDAYHEARLFESIQAIQPYNWGVRSVRFDRDALGSNVLRASELSLVFPDGALYSAPQADELPPPIALDTLPEGINEFTFYLALHPLRETGSNYADDRDAGFVSRFVSEQASVADHFTDAAEADITFLKTNVKLIAHSEPRDQLLSIPLVRVRRTATSGFEIDDGFVPPCLAIEASPILHQRLRQLIDALQAKVNALYGFHREPTKNIIEFRSGDIASFWLLHTASAAFAALAHLHQHSALHPERLFQELLRLAGQLMTFSKGYVLADLPAYRHDDPGPGFARLDSILRELLETVISTRYFAITLEEVRPSFHVGRLDSGKIDDKTAFYLAVSADMPSVELVDAVPARFKVGAPDDVDKLVLSAMPGVRLAYTPQVPPAIPVRPGACYFALDARSPLYERMLQAQSAMIYAPSGINDLKFELIAVTS, MGSDKIHHHHHHMTALDKTGLKILNFQQLLNQLTAKTQELFGDDVNTDQNSALGMYIRVISWLQNIVNQDLEAVYYSSFVDQAEGVSLDRLGSNYSVTRNPAQAATVMLDFTGTTGTVIPEETVYTTESGVEFEMVDTVTLDDSGKGSGEAVCTALDETGNVAPNTISVQGENIAGIESVTNPTQASGGTEIETDDAYRQRIHLSMESQPGPTYYGLYTGLYALPGVEQVQIVPNLTMETDSYGNPPKSLHFYVRGGREDDVAQAILDNIAAGIQTVGKIKEAVKDIGGHTHDVFFDTATVVPIYVNMSLKTSDDFNSETSPVEIVQAIKDYLSGLIMGDKVVFTKLYQAIYNISGVEYAQVTLGRDKSAMGMADIQLDQFETAVVANDSDVEVTVDDG, MGSDKIHHHHHHMTALSSVDFCLPEHITPEIFLRDYWQKKPLVIRNGLPEIVGQFEPQDIIELAQNEDVTARLVKTFSDDDWKVFFSPLSEKDFQKLPEKWSVLVQNLEQWSPELGQLWNKFGFIPQWQRDDIMVSYAPKGGSVGKHYDEYDVFLVQGYGHRRWQVGKWCDASTEFKPNQSIRIFDDMGELVIDEVMNPGDILYIPARMAHYGVAEDDCLTFSFGLRYPNLSNLIDGISKGFCHQDPDLNLSEFDLPLRLSQSEQRTGKLADENIQAMKQLLLDKLAHSEAFDTLFKQAVASAVSSRRYELLVSDEMCDPDEVRSILEEDGAFLSQDNNCKLLYTENPLRIYANGEWLDELNIIESEVLKRLSDGESLDWAFLSDLANKTEDPETSMDLLLDSICNWVDDGWALIE, MGSDKIHHHHHHMTAPKIIDMQALRIFLAAAKDQNMSIAASKLGLTQSAVSQAIGQLEEQFGIKLLDRNRRPLTLTSAGYVLYERGEQLVSAALNLKGAVLEAGHGVRPAIRLGLVDSVATTCGTSIIKQLMPRVAQLKLQTGLSFDVGAALIDRRVDLAITSEPMHRENGLVRYRVLTEQFVVIFSPGLEVADRENTNLALLSAQLPMIRYRSQSHLGRQAETVLRRADLEIPQFLEVDTADTLTSMVAGGLGWALTTPLCLLQAQEHAKRVGIGFLQSSGDSRSIYLLARGGKFDSLIKDTFDITVSVLKEECLARLAYIHPSLDRHAMMGEWPGIAGHSKTTGARRQPDISSEGIE, MGSDKIHHHHHHMTDKGKNDLTSKAKDKARGNPEKPPYWFEIIVSDPQKRTGDPGSSSGYVSYQISTKTNNTSFYDNRGDPESIIVVHRRYSDLLLLHDILLNRFPTCIIPPLPDKKVFQYIAGDRFSQRFTQKRCHSLQNFLRRVSLHPDLSQSKVFKTFLVSKDWESHRKVLQDSLQPNKDEVTDAFMNAFKTVHKQNEEFTEIREKSDKLDRTVTKIDKLFHKVVKKNDSMSEDYTKLGSNLQELQELVTGENEELAAKLKIFNEGVTQLSYGLQDLTKYLDYEYIVDLKDLEHYIDSMRQLIKLKDQKQIDYEELSDYLTRSIKEKNNLISGYGGSNFFANKLEELAGINQEASRREKINKLEGKITSLTGELENAKKVADGFEQECLKEIDHFESVKTAEIKKSLGSLADHHIEFYERILEAWEKVDDSL

Source: the DeepSol protein solubility set
